The source of these data is patent US8598081B2, “Specific delivery of agrochemicals” (priority 2010, dated 2013).

The test system of one series is potato leaf discs. Kind of series: VHH binding at different temperatures, leaf dip experiment. On the set-up: species or system potato (variety Desiree). As to conditions: temperature range from 4° C. to 55° C.; 5 μg/ml in PBS; 1 hour. As for the experimental part: In order to test applicability of VHH as binders for greenhouse or field applications where binding supposedly may occur at different and sometimes even extreme temperatures, a leaf dip VHH binding experiment at different temperatures was used. Temperatures used were 4° C., room temperature, 37° C., 55° C., or 70° C. ø 8 mm potato leaf discs (variety Desiree) were cut using a puncher tool. The leaf discs were equilibrated to different temperatures by washing three times with PBS at different temperatures. Hexahistidine-tagged VHH were diluted to 5 μg/ml in PBS at different temperatures, added to the corresponding equilibrated leaf discs, and binding of VHH was allowed for 1 hour at different temperatures. After incubation with VHH, leaf discs were washed five times with PBS at room temperature. Bound VHH were detected by incubation with monoclonal mouse anti-histidine antibodies directly conjugated with Alexa-488 fluorescent dye (Abd Serotec) in PBS for 1 hour at room temperature. Unbound anti-histidine antibodies were removed by washing five times with PBS at room temperature. Leaf discs were analyzed for bound VHH with microscopy. […] Please note that leaf discs severely suffer when submerged in PBS at 70° C. for 1 hour but that binding of VHH was still detected.

The next series deals with T1, potato lectin (Solanum tuberosum, UniProt Q9S8M0).
T1 construct: purchased Sigma
T1 sequence (Q9S8M0 whole entry, looked up): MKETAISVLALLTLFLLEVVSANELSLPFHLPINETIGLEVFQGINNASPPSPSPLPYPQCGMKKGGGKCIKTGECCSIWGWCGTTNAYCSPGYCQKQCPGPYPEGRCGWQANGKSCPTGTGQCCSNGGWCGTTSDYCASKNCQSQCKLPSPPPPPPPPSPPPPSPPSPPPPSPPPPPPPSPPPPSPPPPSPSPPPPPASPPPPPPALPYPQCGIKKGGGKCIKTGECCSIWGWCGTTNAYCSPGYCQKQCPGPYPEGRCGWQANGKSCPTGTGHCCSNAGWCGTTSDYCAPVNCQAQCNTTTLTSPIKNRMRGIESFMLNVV
In words: ELISA-like assay, microcapsules with monovalent or bivalent VHH, potato lectin. As to conditions: for Surface area of bound microcapsules: Uvitex microcapsules. Type of series: binding. On the set-up: Surface area of bound microcapsules: unit not given here. From the text:
Bivalent VHH constructs were produced in bacteria by cloning two VHH sequences in tandem into the pASF22 vector, creating a fusion of two VHH with a 9 glycine-serine linker (GGGGSGGGS (SEQ ID NO:50)) in between the two VHH. pASF22 is an in-house produced pMES derivative. The tags that were used were C-terminal c-Myc (EQKLISEEDLN (SEQ ID NO:51)) and hexahistidine (HHHHHH (SEQ ID NO:52)). A triple alanine linker (AAA) was placed in between the C-terminal end of the VHH and the c-Myc tag and a glycine-alanine-alanine (GAA) linker was used in between the C-terminal end of the c-Myc tag and the hexahistidine tag. The complete sequence C-terminal of the bivalent VHH that was used: AAA-EQKLISEEDLN-GAA-HHHHHH (SEQ ID NO:53). Fresh overnight cultures were produced by starting from colony streaks and inoculation of 2×TY media supplemented with 2% glucose and 100 μg/ml ampicillin. The overnight cultures were used to inoculate fresh cultures 1:100 in 2×TY media with 0.1% glucose and 100 μg/ml ampicillin. After growing at 37° C. in a shaking incubator for 3 hours, IPTG was added to a 1 mM final concentration and recombinant bivalent VHH were produced during an additional incubation for 4 hours. Cells were spun down and resuspended in 1/50th of the original culture volume of PBS and incubated with head-over-head rotation at 4° C. for 30 minutes. Spheroplasts were spun down by centrifugation at 3,000 g and 4° C. for 20 minutes. Supernatants were transferred to fresh tubes and centrifuged again at 3,000 g and 4° C. for 20 minutes. The supernatant was collected and sodium chloride concentration was adjusted to 500 mM and imidazole concentration to 20 mM. Hexahistidine-tagged bivalent VHH were purified from the extracts using HisTrap FF Crude 5 ml IMAC columns (GE Lifesciences) and HiLoad 16/60 Superdex 75 prep grade gel filtration column (GE Lifesciences) on an AKTAxpress system (GE Lifesciences) following standard procedures.
Next, it was investigated if binding of microcapsules to surfaces could be improved by using targeting agents comprising multivalent VHH. A series of parallel couplings was performed with equal amounts of monovalent VHH, bivalent VHH, and unrelated VHH. Success of coupling of VHH and multivalent VHH were analyzed as described in Example 4. An ELISA-like assay was performed using high bind half area microplates (Greiner Bio-One) coated with 5 μg/well potato lectin. Control wells included blank wells or wells coated with unrelated antigens. Plates were washed three times with PBS with 0.05%-TWEEN®-20 and blocked with 5% skimmed milk in PBS for 1 to 2 hours. VHH-coupled Uvitex-containing microcapsules were diluted to appropriate densities in 1% skimmed milk in PBS with 0.05%-TWEEN®-20. Five-fold serial dilution series were prepared and allowed to bind to the surface to compare binding of microcapsules coupled with monovalent or bivalent VHH. Microcapsules were added to the antigen-coated or control wells and allowed to bind for 1 hour. Unbound microcapsules were removed by washing five times with PBS with 0.05%-TWEEN®-20. The bottoms of ELISA plate wells were analyzed for bound microcapsules on a macrozoom microscope system (Nikon). Microcapsules were counted using Volocity image analysis software (Perkin Elmer). A DAPI filter was used to visualize Uvitex microcapsules. […] The surface area of microcapsules with coupled bivalent VHH was 15-fold above the surface area of blank microcapsules applied at this microcapsule density while the surface area of microcapsules with monovalent VHH was only six-fold above the surface area of blank microcapsules applied at this microcapsule density. This difference could be explained by an increase in binding strength due to additional avidity of the bivalent VHH compared to monovalent VHH, it could also be that the use of bivalent VHH increases flexibility and spacer length of the coupled targeting agents on microcapsules, or a combination of both.
For orientation: In an ELISA, binding on a coated surface is turned into a signal by an enzyme label.

B1: VHH 3E6: VHH binding gum arabic, potato lectin and leaf surface; SEQ ID NO:7 by order of the list (protein, listed as Lama glama)
VHH: QVQLQESGGGLVQPGGTLSLSCAASGFNVRWYGMGWFRQAPGKEREGVACISALQETTAYADSVKGRFTLSRDNPKNTLSLQMNNLQPEDTGVYYCATTDCDDSSRMTYTSYLGQGTQVTVSS
modifications: 3E6
As to B1, the “binding to leaf discs at different temperatures” value with potato leaf discs was “detectable binding”.

B2: Microcapsules containing uvitex OB VHH 3E6: polyurea microcapsules containing the fluorescent tracer Uvitex OB, coupled with (monovalent) VHH 3E6 (conjugate)
VHH: QVQLQESGGGLVQPGGTLSLSCAASGFNVRWYGMGWFRQAPGKEREGVACISALQETTAYADSVKGRFTLSRDNPKNTLSLQMNNLQPEDTGVYYCATTDCDDSSRMTYTSYLGQGTQVTVSS
modifications: left off: small tags and cut ends
notes: polyurea microcapsules containing the fluorescent tracer Uvitex OB, coupled with (monovalent) VHH 3E6
Regarding B2, the “surface area of bound microcapsules above the surface area of blank microcapsules” value with potato lectin (application of 25-fold less microcapsules, potato lectin) was “six-fold”. The “Surface area of bound microcapsules” value stood at 74.536 with potato lectin (no coating (first series, with potato lectin rows), surface coverage 100%); 59.377 with potato lectin (potato lectin, surface coverage 4%); 307.478 with potato lectin (potato lectin, surface coverage 20%); 415.773 in the series with potato lectin (potato lectin, surface coverage 100%).
